This note sets out measurements from patent US20080027145A1, “Therapeutic Molecules and Methods for Generating and/or Selecting Same” (priority 2004, published 2008).

Experiment [1] concerns the target mouse Mcl-1 ΔN151 ΔC23 (mouse) (UniProt P97287). Description: from the solution competition affinities.
Experiment [2] has as its target mouse A1 ΔC20 (mouse) (UniProt Q07440). Description: Biacore solution competition against immobilised mouse wtBimBH3.
Experiment [3] concerns the target mouse Mcl-1 ΔN151 ΔC23 (mouse) (UniProt P97287). The description is as above.
For experiment [4], the target named is m ^wtBimBH3 (83-108) (mouse). Briefly: SPR (Biacore 3000), protein over immobilised m wtBimBH3.
Sequence of m ^wtBimBH3 (83-108) (mouse) (peptide, as listed by the source limits assumed): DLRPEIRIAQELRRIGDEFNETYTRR

Sequence of mouse A1 ΔC20 (mouse) (Q07440 other isoform, or with tags, fused parts or gaps mutant): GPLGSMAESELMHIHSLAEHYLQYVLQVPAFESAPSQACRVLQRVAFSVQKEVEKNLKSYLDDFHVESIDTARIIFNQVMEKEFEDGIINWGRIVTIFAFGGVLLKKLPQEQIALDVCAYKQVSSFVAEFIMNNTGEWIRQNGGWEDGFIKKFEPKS
Sequence of mouse Mcl-1 ΔN151 ΔC23 (mouse) (P97287 other isoform, or with tags, fused parts or gaps mutant): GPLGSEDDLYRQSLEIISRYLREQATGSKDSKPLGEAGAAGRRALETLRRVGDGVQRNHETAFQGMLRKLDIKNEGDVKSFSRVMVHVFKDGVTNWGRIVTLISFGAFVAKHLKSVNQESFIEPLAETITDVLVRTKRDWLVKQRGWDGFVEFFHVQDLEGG

For orientation: IC50 means the concentration needed to halve the response being measured. A lower IC50 goes with higher potency. With Bik (51-75) BH3 peptide, human, in experiment [1], the fold weaker binding than to Bcl-xL came out at 40 fold. The IC50 in experiment [2] came out at 58 nM; in experiment [3], 1700 nM.
For Hrk (26-51) BH3 peptide, human, the IC50 in experiment [2] was 46 nM; in experiment [3], 370 nM.
Taken in the same sequence, the figures for Puma (130-155) BH3 peptide, human were 5.7 nM and 5 nM.
Broadly, the Kd is the free concentration of one partner at which half of the binding sites on the other are occupied at equilibrium, for simple one-to-one binding. A word on the koff: it is the first-order rate constant of dissociation. The kon is the rate constant with which the complex forms. Low values mean slow association, high ones fast association. In experiment [4], “mouse A1 ΔC20 (from UniProt Q07440 1-152)” registered a Kd of 0.5 nM, a koff of 0.00014 s⁻¹ and a kon of 290000 M⁻¹ s⁻¹.
On the same counts, the results for “mouse Mcl-1 ΔN151 ΔC23 (from UniProt P97287 152-308)” are 0.2 nM, 0.00026 s⁻¹ and 1.3e+06 M⁻¹ s⁻¹.
